Columns and labels:
[1] = target: core CoREST complex LSD1/HDAC1/CoREST1 (LHC) (UniProt O60341); assay: enzyme inhibition (fluorogenic HDAC deacetylation assay); LHC (1 nM) pretreated 30 min on ice with inhibitor in 50 mM HEPES 7.5, 100 mM KCl, 100 uM InsP6, 0.2 mg/mL BSA; 50 uM fluorogenic peptide substrate, 37 C, 15 min; Ki = IC50/([S]/Km + 1), competitive model
[2] = target: core CoREST complex LSD1/HDAC1/CoREST1 (LHC) (UniProt O60341); assay: enzyme inhibition (fluorogenic HDAC deacetylation assay); Dixon plot of LHC inhibition by H3K14Hd-modified nucleosomes versus peptide substrate

Substance: H3K4me2K14Hd(1-34) synthetic H3 peptide (from UniProt P84233 2-35)
- fold lower Ki than the corresponding Hd nucleosome [1]: 30 fold

Substance: H3K4me2K9Hd(1-34) synthetic H3 peptide (from UniProt P84233 2-35)
- fold lower Ki than the corresponding Hd nucleosome [1]: 30 fold

Substance: H3K14Hd containing nucleosome (146 bp mononucleosome with semisynthetic H3K4me2K14Hd) (complex)
- Ki [2]: 35 nM
- Ki [1]: 40 nM

Substance: H3K9Hd containing nucleosome (146 bp mononucleosome with semisynthetic H3K4me2K9Hd) (complex)
- Ki [1]: 60 nM

Substance: semisynthetic histone H3 H3K4me2K14Hd (from UniProt P84233 2-136) (natural protein)
- fold lower Ki than the corresponding Hd nucleosome [1]: 30 fold

From paper PMC6019071
